# From patent publication US20230382966A1, “NOVEL KLOTHO INTERACTION SITE IN THE C-TERMINUS OF FGF23” (INDIANA UNIVERSITY RESEARCH AND TECHNOLOGY CORPORATION, priority 2020, published 2023)
# Key:
# [1] = tested on: FGF21-signaling in 293/KLB cells; test: Block of FGF21-signaling in 293/KLB cells; type: cell-based; conditions: Table 1, FGF21 associated antagonist
# From the text: The sequence homology in these endocrine FGF peptides (FGF23^180-205, FGF23^212-239, FGF19^191-216 and FGF21^185-209) is provided in FIG. 2.
# FGFR/KL complex = test: FGF23-signaling activity (stimulation of Erk-phosphorylation) in 293/KL cells; type: cell-based, human; conditions: for EC50: Table 3, p-Erk
# FGFR/KL complex, sequence (Q9UEF7 34-1012, one chain of several): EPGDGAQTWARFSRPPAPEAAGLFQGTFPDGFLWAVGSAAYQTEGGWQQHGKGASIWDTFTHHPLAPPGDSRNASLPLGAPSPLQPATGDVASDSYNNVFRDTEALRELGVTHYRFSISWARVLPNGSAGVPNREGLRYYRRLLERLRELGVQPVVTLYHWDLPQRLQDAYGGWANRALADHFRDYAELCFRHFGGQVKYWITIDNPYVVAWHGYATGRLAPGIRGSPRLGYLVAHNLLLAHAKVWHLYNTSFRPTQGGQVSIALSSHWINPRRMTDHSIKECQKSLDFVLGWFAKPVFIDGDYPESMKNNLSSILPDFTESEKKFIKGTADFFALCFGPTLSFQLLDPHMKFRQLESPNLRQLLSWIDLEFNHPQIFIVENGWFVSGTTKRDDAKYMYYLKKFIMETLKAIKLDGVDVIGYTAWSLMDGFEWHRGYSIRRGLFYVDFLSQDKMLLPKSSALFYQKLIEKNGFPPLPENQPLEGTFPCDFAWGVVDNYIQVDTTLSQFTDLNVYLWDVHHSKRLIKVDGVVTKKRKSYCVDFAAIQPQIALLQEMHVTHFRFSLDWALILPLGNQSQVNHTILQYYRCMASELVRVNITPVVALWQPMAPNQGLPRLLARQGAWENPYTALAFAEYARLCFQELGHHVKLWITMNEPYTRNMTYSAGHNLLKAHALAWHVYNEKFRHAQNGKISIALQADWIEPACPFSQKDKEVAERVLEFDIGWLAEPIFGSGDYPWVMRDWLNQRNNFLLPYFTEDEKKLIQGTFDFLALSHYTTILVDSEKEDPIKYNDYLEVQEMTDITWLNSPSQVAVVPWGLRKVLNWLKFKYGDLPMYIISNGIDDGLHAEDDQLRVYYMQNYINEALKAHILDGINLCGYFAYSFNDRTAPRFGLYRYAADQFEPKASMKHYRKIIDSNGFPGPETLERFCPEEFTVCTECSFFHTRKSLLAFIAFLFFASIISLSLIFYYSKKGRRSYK
# Method: (§1) FIGS. 5A-5D provide data relating to the activities of FGF23-analogs containing one or two active KL-interaction sites by in vitro and in vivo methods. […] FIGS. 5B-5D are scatter plots presenting an in vivo assessment of FGF23-activity in mice. WT mice were treated with 0.5 mg/kg body weight with either FGF23, FGF23 A^188, FGF23 A^222, FGF23 A^188,222, or vehicle, n=5 or 10/group, and post 3-hours the gene expression changes were studied by quantitative real time PCR for target genes, FIG. 5B represents measurement of Cyp24a1, FIG. 5C represents measurement of Cyp27b1, and FIG. 5D represents measurement of Egr1. The data is presented as a scatter plot where each dot represents one animal, mean ±SEM. One-way ANOVA with Tukey's comparison was employed for statistical analyses where***P<0.001 vs. vehicle; #P<0.05, ##P<0.01, ###P<0.001 vs FGF23; and $$$P<0.001 vs FGF23 A^188,222 was calculated.
# Whether FGF23-based agonism can employ each of the two KL-interaction sites as witnessed in the C72 peptide antagonist was studied. To do so, a selective mutation at position Asp188 or Asp222 was made in the native FGF23. […] This is consistent with prior reports where C-terminal sequence deletion after residue 205 position had no apparent effect on cellular signaling (FIG. 5A, Table 3). […] Asp188 residue is purported to be singularly essential for KL-binding and FGF23 activity, and its importance was substantiated by the lack of antagonism when the C26 peptide was similarly mutated from Asp to Ala (FIG. 4A). […] To confirm that these observations were not resulting from unexpected changes in higher order structure that was not apparent in biosynthesis, purification, or formulation of the mutant proteins their biophysical integrity were directly assessed by thermal denaturation.
# The N-terminal domain of the endocrine FGFs primarily determines the FGFR-activation while the C-terminal sequence guides the co-receptor specificity with a Klotho co-receptor, KL or KLB. The receptor complex specificity among the endocrine FGF-proteins can be modulated by altering their C-terminal domains. Consequently, two FGF21-23 chimeric protein analogs were prepared containing the FGF21 N-terminal core with its C-terminal KLB-binding peptide replaced with an FGF23 C-terminal peptide sequence constituted by C72 (FGF21-23 C72) or C26 (FGF21-23 C26) (Table 3).
# [2] = tested on: FGFR/KL-downstream targets Cyp24a1, Cyp27b1 and Egr1; test: Mouse kidney gene expression after FGF23 protein analogs (quantitative real time PCR); type: in vivo; conditions: WT mice, 0.5 mg/kg, 3 hours
# Method: as §1
# To test whether C28 as the second KL-interaction site can promote FGF23 in vivo activity, the single site FGF23-analogs were assessed for their ability to alter kidney gene expression in normal mice. Four proteins (FGF23, FGF23 A188, FGF23 A222 or FGF23 A188, 222 analogs) were each dosed to mice 0.5 mg/kg and 3 hours later quantitative real time PCR was employed to assess kidney mRNA expression of the FGFR/KL-downstream targets Cyp24a1, Cyp27b1 and early growth response protein 1 (Egr1). […] This is not surprising since the optimal treatment time for Egrl modulation is as early as 1 hour for FGF-signaling measurements. The magnitude in upregulation of gene expression for Cyp24a1 was the highest, with twenty-fold induction by native FGF23 treatment (FIG. 5B). […] Similarly, the Egrl induction is reduced for FGF23 A188 and FGF23 A222 analogs as compared to native FGF23 (P<0.05, FIG. 5D), but no difference is observed among the analogs and FGF23 for Cyp27b1 (FIG. 5C).
Molecule,EC50 (FGFR/KL complex) [nM],IC50 [1] [nM],FGF23-type agonism / FGFR/KL activation (in words) (FGFR/KL complex),kidney Cyp24a1 mRNA expression vs vehicle [2],kidney Cyp27b1 mRNA expression vs vehicle [2],Egr1 induction as compared to native FGF23 ([2]; kidney),magnitude of Cyp24a1 effect as compared to native FGF23 ([2]; kidney),magnitude of upregulation of Cyp24a1 gene expression (induction) ([2]; kidney)
"21C25: FGF21 associated antagonist (FGF21^185-209, C25) (PPDVGSSDPLSMVGPSQGRSPSYAS)",–,75.2 ± 19,–,–,–,–,–,–
"FGF23 A^188,222: FGF23^25-240, A^188,222 (protein) YPNASPLLGSSWGGLIHLYTATARNSYHLQIHKNGHVDGAPHQTIYSALMIRSEDAGFVVITGVMSRRYLCMDFRGNIFGSHYFDPENCRFQHQTLENGYDVYHSPQYHFLVSLGRAKRAFLPGMNPPPYSQFLSRRNEIPLIHFNTPIPRRHTRSAEDDSERAPLNVLKPRARMTPAPASCSQELPSAEDNSPMASAPLGVVRGGRVNTHAGGTG",–,–,bioactivity was abrogated,inactive,inactive,statistically different,–,–

# The next lines start with results.
EC50 (FGFR/KL complex) [nM],Molecule,IC50 [1] [nM],FGF23-type agonism / FGFR/KL activation (in words) (FGFR/KL complex),kidney Cyp24a1 mRNA expression vs vehicle [2],kidney Cyp27b1 mRNA expression vs vehicle [2],Egr1 induction as compared to native FGF23 ([2]; kidney),magnitude of Cyp24a1 effect as compared to native FGF23 ([2]; kidney),magnitude of upregulation of Cyp24a1 gene expression (induction) ([2]; kidney)
0.28 ± 0.08,"FGF23 A^188: FGF23^25-240, A^188 (protein) YPNASPLLGSSWGGLIHLYTATARNSYHLQIHKNGHVDGAPHQTIYSALMIRSEDAGFVVITGVMSRRYLCMDFRGNIFGSHYFDPENCRFQHQTLENGYDVYHSPQYHFLVSLGRAKRAFLPGMNPPPYSQFLSRRNEIPLIHFNTPIPRRHTRSAEDDSERAPLNVLKPRARMTPAPASCSQELPSAEDNSPMASDPLGVVRGGRVNTHAGGTG",–,retained full potency,significant elevation,coordinate suppression,reduced,fractionally reduced,–
0.16 ± 0.05,"FGF23: FGF23^25-240, native protein (protein) YPNASPLLGSSWGGLIHLYTATARNSYHLQIHKNGHVDGAPHQTIYSALMIRSEDAGFVVITGVMSRRYLCMDFRGNIFGSHYFDPENCRFQHQTLENGYDVYHSPQYHFLVSLGRAKRAFLPGMNPPPYSQFLSRRNEIPLIHFNTPIPRRHTRSAEDDSERDPLNVLKPRARMTPAPASCSQELPSAEDNSPMASDPLGVVRGGRVNTHAGGTG",–,–,significant elevation,coordinate suppression,–,–,twenty-fold
